From the supplement of paper PMC9170038

Experiments:
MS2 coat protein [1] = experiment: apparent KD of MS2 coat protein, switch ON state; designed switch direction (-1 OFF switch, 1 ON switch): -1; higher = weaker reporter binding; settings: FMN input: 0 or 200 uM; Eterna round: R93 (includes R88 designs)
Summary of the method: (§1)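 Illumina sequencing clusters were used for on-chip transcription of designed RNA switches. Titration with SNAP-549-labelled MS2 coat protein followed, in twofold steps from 0.7 or 1.5 nM to 3 µM in 100 mM Tris-HCl pH 7.5, 80 mM KCl, 4 mM MgCl2, without or with constant ligand. Apparent KD is each design's median of fits to normalised cluster binding curves.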

MS2 coat protein [2] = experiment: apparent KD of MS2 coat protein, switch OFF state (with FMN for OFF switches, without FMN for ON switches); designed switch direction (-1 OFF switch, 1 ON switch): -1; higher = weaker reporter binding; settings: FMN input: 0 or 200 uM; Eterna round: R93 (includes R88 designs)
Summary of the method: as §1

Row | Sequence | apparent KD of MS2 coat protein (MS2 coat protein [1]) | apparent KD of MS2 coat protein (MS2 coat protein [2])
1 | AAAAGCUUAGGAUAUACACAAAAUAAAGGAGUGAUAUCAGAACAUGAGGAUCACCCAUGUAGAAGGAAGAAAUA [Ceerle] | 65.3 nM | 58 nM
2 | AGACAUACAGGAUAUACAUAGGAAAAAAAAAAAAAAAUUCAACAUGAGGAUCACCCAUGUAGAAGGGUAUGUCA [Ex2 Design 172: Random 2] | 65.5 nM | 69.9 nM
3 | AAAAAGGUAGGAUAUGCUAAAUAACAUGUUGAAUAAAUAAAACAUGAGGAUCACCCAUGUAGAAGGACCAAAAA [Ex 2 Tesla 2] | 54 nM | 58.1 nM
4 | AACAUGUCAGGAUAUGCGAAGGCGUCUGACAGACGAGGCUAGCAGAAGGGACAUGAGGAUCACCCAUGUAAAAA [Mod of Power Strip by EINando888 - changed 3 and 30 to C] | 111 nM | 48.8 nM
5 | AAGAAAGGAGGAUAUACAUGAGGAUCACCCAUGUAAAAGAAAGAAAGGGAAAAGAAAAGUAGAAGGCCUAAGAA [Shoshenq IV] | 35.3 nM | 41.2 nM
6 | AAAAACUGAGGAUAUACGAAAAAAAAAAAAAAAAAAAAAAAACAUGAGGAUCACCCAUGUAGAAGGCAGAAAAA [exclusion 02 - A] | 41.4 nM | 57.5 nM
7 | AAGAAGUCAGGAUAUCGAAGACAGACGAAAAGUCUGUCAAACGAGAAGGGACAUGAGGAUCACCCAUGUAAGAA [What have we learned so far? 64% 1] | 44.9 nM | 60.4 nM
8 | AAGAAUGGAGGAUAUACAUGAGGAUCACCCAUGUAAAAGAAAGAAAAGGGAAAGAAAAGUAGAAGGCCAAAGAA [Sekhaenre/Akhenre Merenptah Siptah] | 28.5 nM | 41 nM
9 | AGUAGUACAGGAUAUACAUGAGGAUCACCCAUGUGAAAAAUAAGUGGCGUACCACAAAGUAGAAGGGUACUACA [Mat - Exclusion 3 - JL mod - D37] | 29.9 nM | 141 nM
10 | UCCGGACAUGAGGAUCACCCAUGUGAGGAUAUAUAAAGUGGGACUAGAAACAGUCCCAAUAGAAGGCACAUGAC [Esarbiorar] | 22 nM | 17.6 nM
11 | UAAAAGUGAGGAUAUUCGGAUAGGAAAACGAAAACCUAUCCGAAGAAGGCACAUGAGGAUCACCCAUGUAAAAU [Mat - Exaclusion 4 - Eli mod - D37] | 33.1 nM | 48 nM
12 | AAAGGACGAGGAUAUACAUGAGGAUCACCCAUGUAAAAAACAUAGUAAAAGUGCUUGUGUAGAAGGCGUCCAAA [Meechl Ex3 2 R2 v9] | 78.1 nM | 194 nM
13 | AAAAAAAGAGGAUAUACAUGAAAAAUAAAAAUGUAAAAAAAACAUGAGGAUCACCCAUGUAGAAGGCUUAAAAA [Ecx-I 62% 1] | 24.6 nM | 25.9 nM
14 | GGUUGGCGAGGAUAUACAUGAGGAUCACCCAUGUGAGAGAAAAAAGUGAGACAGAAAAGUAGAAGGCGCUGACG [salish99-ex3-24] | 65.8 nM | 7.45 nM
15 | GGAAAGCAAGGAUAUGCAAACAAACAAACAAACAAAAGGGAACAUGAGGAUCACCCAUGUAGAAGGUGCAAACA [Exclusion 2 Two redone] | 41.9 nM | 28.6 nM
16 | AACCAACAUGAGGAUCACCCAUGUCAGGAUAUGCAAACAACAAACAACAAACAACAAAGCAGAAGGGACAACAA [63%, Olong, 1] | 15.2 nM | 21.1 nM
17 | AGUGAGUGAGGAUAUGAGUGAACAACAAAACAAAUAACGACUCAGAAGGCACAUGAGGAUCACCCAUGUACACA [May 68] | 24 nM | 22.3 nM
18 | AGAGACAGAGGAUAUACAUGAGGAUCACCCAUGUAAAAGAAAGAAAAGGGAAAGAAAAGUAGAAGGCUGAGAGA [Ruby 66] | 23.6 nM | 25.4 nM
19 | AAAACGGCAGGAUAUACAGAUGAGAACUAGACCGAAAAAAAACAUGAGGAUCACCCAUGUAGAAGGGCCAAAAA [Ex2 Malc#7] | 27.8 nM | 36.8 nM
20 | AACAAGUGAGGAUAUUGGAAAAGUAAAUAAGUAAAACAAAACAAGAAGGCACAUGAGGAUCACCCAUGUAAAUA [JR_Exc004_Sub017] | 21.9 nM | 17.9 nM
21 | AACAAGACAGGAUAUACAUGAGGAUCACCCAUGUGAGAAUAAAGUGGCGUAACACAAAGUAGAAGGGUCAUGGA [Ruby 6] | 32.6 nM | 55.5 nM
22 | CAGUACUGAGGAUAUACAUGAGGAUCACCCAUGUGUUCCAGCUAGGAAACUAGCAAAAGUAGAAGGCAGUACUG [Ex3: 828] | 24.6 nM | 343 nM
23 | AAGAAGGUAGGAUAUACUAAAGAAAUAAAAAGAAAGAAAGAACAUGAGGAUCACCCAUGUAGAAGGGCCAAGAA [Merkare] | 51 nM | 35.2 nM
